Assay results published in paper PMC11024197.
Values joined by “and” are separate entries in the source; they are usually repeats but may differ in a detail not shown here. Equal entries are not always repeated. Blank lines part the entries; values can stand above or below the substance they belong to.

Legend:
[1] = target: PEX14 NTD (1-104) (human) (UniProt O75381); test: ITC; PEX14 NTD (1-104) (20-60 µM) in the cell, titrated with PEX5 W peptides or W0 (0.4-0.6 mM), PEX13 FxxxF (0.46 mM) or PEX13 SH3-CTR (1 mM); 25 °C; 20 mM Tris pH 7.5, 50 mM NaCl; one-site binding model; PEX14 concentration corrected with the fit; triplicates
[2] = target: PEX14 NTD (1-104) (human) (UniProt O75381); test: ITC; PEX14 (1-104) (20-60 uM, concentration corrected with the fit) in the cell, peptide or fragment in the syringe; 25 °C, 20 mM Tris pH 7.5, 50 mM NaCl; one-site binding model; single runs of triplicates and their averages
[3] = target: PEX13 SH3 domain (human) (UniProt Q92968); test: ITC; PEX13 SH3 at 35-48 µM titrated with PEX5 15-mer peptides or PEX5 1-76 (0.6-0.7 mM) or PEX13 350-403 (0.9-1 mM); 25 °C; 20 mM Tris pH 7.5, 50 mM NaCl; one-site model; triplicates
[4] = target: PEX13 SH3 domain (human) (UniProt Q92968); test: ITC; PEX13 SH3 (35-48 uM) in the cell, peptide or fragment in the syringe; 25 °C, 20 mM Tris pH 7.5, 50 mM NaCl; one-site binding model; single runs of triplicates and their averages
[5] = target: PEX14 NTD (1-104) (human) (UniProt O75381); test: ITC; PEX14 (1-104) at 20-60 µM titrated with PEX5 W peptides or W0 (0.4-0.6 mM), PEX13 FxxxF (0.46 mM) or PEX13 SH3-CTR (1 mM); 25 °C; 20 mM Tris pH 7.5, 50 mM NaCl; one-site model; PEX14 concentration corrected with the fit; triplicates

Chain of PEX14 NTD (1-104) (human) (O75381 1-104): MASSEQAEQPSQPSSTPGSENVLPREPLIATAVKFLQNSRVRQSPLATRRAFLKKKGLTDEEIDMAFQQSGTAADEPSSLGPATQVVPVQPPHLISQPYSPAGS

Substance: PEX5 W2 peptide
stoichiometry N [1]: 1
stoichiometry N [2]: 1 sites

Substance: PEX5 W3 peptide
stoichiometry N [1]: 1
stoichiometry N [2]: 1 sites

Substance: PEX13 FF/W4 (FxxxF fragment with the core motif FESVF replaced by WYDEY) (domain or fragment)
Kd [4]: 6.48 µM and 6.11 µM and 6.59 µM
stoichiometry N [4]: 1 sites

Substance: PEX13 FxxxF peptide (residues 350-403) (from UniProt Q92968 350-403) (domain or fragment)
Kd [3]: 27 µM
Kd [5]: 2.8 µM
stoichiometry N [5]: 1

Second part, the substance after the results:

stoichiometry N [1]: 1
stoichiometry N [2]: 1 sites
Substance: PEX5 W4 peptide

Kd [3]: 6 µM
Substance: PEX13 FF/W4 (FxxxF core motif FESVF replaced with WYDEY), as titrated onto the SH3 domain (domain or fragment)

Kd [5]: 5.4 µM
stoichiometry N [5]: 1
Substance: PEX13 SH3-CTR (residues 261-403) (from UniProt Q92968 261-403) (domain or fragment)
